The target of test [1] is T1, human FAPα (Fibroblast activation protein alpha), cell surface expressed (human, UniProt Q12884 1-760).
T1 construct: Endogenous on human lung fibroblasts and CAFs
T1 sequence: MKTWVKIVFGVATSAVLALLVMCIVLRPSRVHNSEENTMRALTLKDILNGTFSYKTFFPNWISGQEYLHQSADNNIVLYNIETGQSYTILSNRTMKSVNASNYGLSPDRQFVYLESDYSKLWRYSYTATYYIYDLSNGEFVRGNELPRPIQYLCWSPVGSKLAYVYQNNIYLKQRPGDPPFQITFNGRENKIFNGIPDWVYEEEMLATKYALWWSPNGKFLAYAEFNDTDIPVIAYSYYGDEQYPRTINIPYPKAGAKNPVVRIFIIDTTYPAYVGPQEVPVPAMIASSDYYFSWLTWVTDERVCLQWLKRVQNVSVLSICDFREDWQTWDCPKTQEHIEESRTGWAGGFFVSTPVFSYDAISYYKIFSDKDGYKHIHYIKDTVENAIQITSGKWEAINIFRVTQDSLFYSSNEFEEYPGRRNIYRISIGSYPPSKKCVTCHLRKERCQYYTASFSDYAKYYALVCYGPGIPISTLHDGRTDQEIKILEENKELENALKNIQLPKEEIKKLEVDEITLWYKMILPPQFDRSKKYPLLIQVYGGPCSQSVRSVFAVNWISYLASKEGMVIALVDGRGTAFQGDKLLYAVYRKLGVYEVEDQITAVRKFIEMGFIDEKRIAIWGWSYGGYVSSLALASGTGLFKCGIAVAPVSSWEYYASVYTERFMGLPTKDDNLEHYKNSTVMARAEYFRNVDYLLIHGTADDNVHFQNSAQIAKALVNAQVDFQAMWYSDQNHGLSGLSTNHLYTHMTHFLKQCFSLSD
Put plainly: flow cytometry, Expi293F cells expressing human FAPα, n = 3. The procedure: (§1) Binding of BisG1-FAPα-FERL/DR4-FERR, BisG1-FAPα-FEAL/b12-FEAR and IgG1-FAPα-FERL to FAPα of species commonly used for nonclinical toxicology studies was assessed by flow cytometry using Expi293F cells transiently expressing FAPα from different animal species. IgG1-b12 was included as negative control.
(§2) Expi293F cells expressing recombinant FAPα from various species (human, cynomolgus monkey, dog, pig, rat or mouse) were seeded (20,000 cells/well) in 96-Well round bottom plates (Greiner Bio-one, Cat #650101). Antibody dilutions were prepared using FACS buffer, consisting of PBS (Capricorn Scientific, Cat #PBS-10XA, diluted to 1×PBS in distilled water)+1% BSA (Roche, Cat #10735086001)+0.02% Sodium Azide (Bio-World, Cat #41920044-3). Plates were centrifuged, supernatant was removed, and cells were resuspended in 100 μL of antibody dilutions (concentration range 30-0.00017 μg/mL with three-fold serial dilutions using FACS buffer) of BisG1-FAPα-FERL/DR4-FERR, BisG1-FAPα-FEAL/b12-FEAR, IgG1-FAPα-FERL and IgG1-b12 and incubated for 30 min at 4° C. […] After 30 min incubation at 4° C., cells were washed with FACS buffer and resuspended in FACS buffer supplemented with TO-PRO-3 Iodide viability marker (Invitrogen, Cat #T3605, diluted 1:4,000). Antibody binding to viable cells (gMFI of PE on TO-PRO-3 negative cells) was analyzed by flow cytometry on a FACS Celesta and FACS_Diva software (first two experiments) or iQue® 3 and FlowJo software (last experiment). gMFI was determined and visualized using GraphPad Prism. Binding curves were analyzed using nonlinear regression analysis. The concentration (pg/mL) at which 50% of the maximal effect was observed (EC₅₀) was derived from the fitted curves.

Test [2] has as its target T2, cynomolgus monkey FAPα on Expi293F cells (cynomolgus monkey (Macaca fascicularis), UniProt Q12884 1-760 (human entry)).
T2 sequence: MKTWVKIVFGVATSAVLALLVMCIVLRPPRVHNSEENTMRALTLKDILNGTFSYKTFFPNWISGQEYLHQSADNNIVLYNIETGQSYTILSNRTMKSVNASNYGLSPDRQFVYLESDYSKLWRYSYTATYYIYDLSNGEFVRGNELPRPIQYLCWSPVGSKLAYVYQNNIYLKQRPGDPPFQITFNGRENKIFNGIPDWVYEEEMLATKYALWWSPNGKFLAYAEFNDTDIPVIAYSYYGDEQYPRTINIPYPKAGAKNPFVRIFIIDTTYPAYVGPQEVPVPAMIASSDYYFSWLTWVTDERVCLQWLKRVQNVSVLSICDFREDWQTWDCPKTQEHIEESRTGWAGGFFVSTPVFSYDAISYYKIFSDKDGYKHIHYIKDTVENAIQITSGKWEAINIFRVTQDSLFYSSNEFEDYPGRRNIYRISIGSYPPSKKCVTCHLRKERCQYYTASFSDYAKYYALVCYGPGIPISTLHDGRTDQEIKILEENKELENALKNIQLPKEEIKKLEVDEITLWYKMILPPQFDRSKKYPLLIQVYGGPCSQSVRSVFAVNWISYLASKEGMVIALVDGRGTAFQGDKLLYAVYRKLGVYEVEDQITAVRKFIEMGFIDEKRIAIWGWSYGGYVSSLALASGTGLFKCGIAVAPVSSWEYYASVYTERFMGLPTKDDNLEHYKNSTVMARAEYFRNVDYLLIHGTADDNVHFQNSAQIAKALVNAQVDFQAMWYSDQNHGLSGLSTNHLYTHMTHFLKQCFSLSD
The test is described as follows: flow cytometry, Expi293F cells expressing cynomolgus monkey FAPα, n = 3. The procedure: as §1, §2

In test [3] the target is T3, human DR4 (Death Receptor 4), cell surface expressed on human tumor cell lines (human, UniProt O00220 24-468).
T3 construct: also called TNFRSF10A; TRAIL-R1
T3 sequence: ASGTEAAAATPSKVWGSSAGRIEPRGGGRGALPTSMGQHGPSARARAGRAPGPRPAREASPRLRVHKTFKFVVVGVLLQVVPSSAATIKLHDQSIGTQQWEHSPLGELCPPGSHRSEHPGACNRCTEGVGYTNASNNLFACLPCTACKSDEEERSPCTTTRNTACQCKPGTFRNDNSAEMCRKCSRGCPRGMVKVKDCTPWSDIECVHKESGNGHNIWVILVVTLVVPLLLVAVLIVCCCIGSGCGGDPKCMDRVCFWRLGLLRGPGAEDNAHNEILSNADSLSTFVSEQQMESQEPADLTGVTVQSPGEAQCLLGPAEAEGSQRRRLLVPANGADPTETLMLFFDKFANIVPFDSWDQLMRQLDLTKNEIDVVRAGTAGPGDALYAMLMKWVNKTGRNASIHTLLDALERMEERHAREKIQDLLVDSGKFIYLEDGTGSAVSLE
Put plainly: flow cytometry, HCT-15 cells, n = 3.

Test [4] deals with T3, human DR4 (Death Receptor 4), cell …. Put plainly: flow cytometry, A549 cells, n = 2.

B1: BisG1-FAPα-FERL/DR4-FERR (bispecific antibody, human IgG1, kappa, lambda)
heavy 1: EVQLLESGGGLVQPGGSPRLSCEASGFTFSSYALSWVRQAPGKGLEWVSAISGSGGGRYYADSVKGRFTISRDNSKNTLFLQMNSLRAEDTAVYYCAKEGYSSSGTYWDHWGQGTLVTVSSASTKGPSVFPLAPSSKSTSGGTAALGCLVKDYFPEPVTVSWNSGALTSGVHTFPAVLQSSGLYSLSSVVTVPSSSLGTQTYICNVNHKPSNTKVDKRVEPKSCDKTHTCPPCPAPEFERGPSVFLFPPKPKDTLMISRTPEVTCVVVDVSHEDPEVKFNWYVDGVEVHNAKTKPREEQYNSTYRVVSVLTVLHQDWLNGKEYKCKVSNKALPAPIEKTISKAKGQPREPQVYTLPPSREEMTKNQVSLTCLVKGFYPSDIAVEWESNGQPENNYKTTPPVLDSDGSFLLYSKLTVDKSRWQQGNVFSCSVMHEALHNHYTQKSLSLSPG
light 1: AIQMTQSPSSVSASVGDRVTITCRASQGVSSWLAWYQQKPGRAPKLLIYVASTLQSGVPSRFSGSGSGTDFTLTINSLQPEDFATYYCQQANSFPPTFGQGTRLEMKRTVAAPSVFIFPPSDEQLKSGTASVVCLLNNFYPREAKVQWKVDNALQSGNSQESVTEQDSKDSTYSLSSTLTLSKADYEKHKVYACEVTHQGLSSPVTKSFNRGEC
heavy 2: QVQLQESGPGLVKPSGTLSLTCAVSGGSISSYSWWSWIRQPPGKGLEWIGELYHSGSTNYNPSLKSRVTISVDKSKNQFSLKLRSVTAADTAVYYCVRGVATIDYWGQGTLVTVSSASTKGPSVFPLAPSSKSTSGGTAALGCLVKDYFPEPVTVSWNSGALTSGVHTFPAVLQSSGLYSLSSVVTVPSSSLGTQTYICNVNHKPSNTKVDKRVEPKSCDKTHTCPPCPAPEFERGPSVFLFPPKPKDTLMISRTPEVTCVVVDVSHEDPEVKFNWYVDGVEVHNAKTKPREEQYNSTYRVVSVLTVLHQDWLNGKEYKCKVSNKALPAPIEKTISKAKGQPREPQVYTLPPSREEMTKNQVSLTCLVKGFYPSDIAVEWESNGQPENNYKTTPPVLDSDGSFFLYSRLTVDKSRWQQGNVFSCSVMHEALHNHYTQKSLSLSPG
light 2: QSALTQPPSASGSPGQSVTISCTGTSSDVGGYNFVSWYQQDPGKAPKLLIYEVTKRPSGVPDRFSGSKSGNTASLTVSGLQAEDEADYYCSSYAGSNNVMFGGGTKLTVLGQPKAAPSVTLFPPSSEELQANKATLVCLISDFYPGAVTVAWKADSSPVKAGVETTTPSKQSNNKYAASSYLSLTPEQWKSHRSYSCQVTHEGSTVEKTVAPTECS
notes: Human IgG1 bispecific made by controlled Fab-arm exchange of IgG1-FAPα-FERL and IgG1-DR4-FERR; monovalent for FAPα and for DR4; also called GEN1057
With B1, the EC50 in test [1] was 0.23 µg/mL; in test [2] it was 0.16 µg/mL; in test [3] it was 0.68 µg/mL; in test [4], 0.93 µg/mL.

B2: BisG1-b12-FERL/DR4-FERR (bispecific antibody, human IgG1, kappa, lambda)
heavy 1: QVQLVQSGAEVKKPGASVKVSCQASGYRFSNFVIHWVRQAPGQRFEWMGWINPYNGNKEFSAKFQDRVTFTADTSANTAYMELRSLRSADTAVYYCARVGPYSWDDSPQDNYYMDVWGKGTTVIVSSASTKGPSVFPLAPSSKSTSGGTAALGCLVKDYFPEPVTVSWNSGALTSGVHTFPAVLQSSGLYSLSSVVTVPSSSLGTQTYICNVNHKPSNTKVDKRVEPKSCDKTHTCPPCPAPEFERGPSVFLFPPKPKDTLMISRTPEVTCVVVDVSHEDPEVKFNWYVDGVEVHNAKTKPREEQYNSTYRVVSVLTVLHQDWLNGKEYKCKVSNKALPAPIEKTISKAKGQPREPQVYTLPPSREEMTKNQVSLTCLVKGFYPSDIAVEWESNGQPENNYKTTPPVLDSDGSFLLYSKLTVDKSRWQQGNVFSCSVMHEALHNHYTQKSLSLSPG
light 1: EIVLTQSPGTLSLSPGERATFSCRSSHSIRSRRVAWYQHKPGQAPRLVIHGVSNRASGISDRFSGSGSGTDFTLTITRVEPEDFALYYCQVYGASSYTFGQGTKLERKRTVAAPSVFIFPPSDEQLKSGTASVVCLLNNFYPREAKVQWKVDNALQSGNSQESVTEQDSKDSTYSLSSTLTLSKADYEKHKVYACEVTHQGLSSPVTKSFNRGEC
heavy 2: QVQLQESGPGLVKPSGTLSLTCAVSGGSISSYSWWSWIRQPPGKGLEWIGELYHSGSTNYNPSLKSRVTISVDKSKNQFSLKLRSVTAADTAVYYCVRGVATIDYWGQGTLVTVSSASTKGPSVFPLAPSSKSTSGGTAALGCLVKDYFPEPVTVSWNSGALTSGVHTFPAVLQSSGLYSLSSVVTVPSSSLGTQTYICNVNHKPSNTKVDKRVEPKSCDKTHTCPPCPAPEFERGPSVFLFPPKPKDTLMISRTPEVTCVVVDVSHEDPEVKFNWYVDGVEVHNAKTKPREEQYNSTYRVVSVLTVLHQDWLNGKEYKCKVSNKALPAPIEKTISKAKGQPREPQVYTLPPSREEMTKNQVSLTCLVKGFYPSDIAVEWESNGQPENNYKTTPPVLDSDGSFFLYSRLTVDKSRWQQGNVFSCSVMHEALHNHYTQKSLSLSPG
light 2: QSALTQPPSASGSPGQSVTISCTGTSSDVGGYNFVSWYQQDPGKAPKLLIYEVTKRPSGVPDRFSGSKSGNTASLTVSGLQAEDEADYYCSSYAGSNNVMFGGGTKLTVLGQPKAAPSVTLFPPSSEELQANKATLVCLISDFYPGAVTVAWKADSSPVKAGVETTTPSKQSNNKYAASSYLSLTPEQWKSHRSYSCQVTHEGSTVEKTVAPTECS
notes: Fab-arm exchange of IgG1-b12-FERL and IgG1-DR4-FERR; also called bsIgG1-ctrl-FERLxDR4-FERR
Regarding B2, the concentration for a half-maximal effect (EC50) in test [3] was 0.53 µg/mL; in test [4] it was 0.68 µg/mL.
